Two compounds from ChEMBL document CHEMBL1671717, “In vitro potentiation of carbapenems with ME1071, a novel metallo-beta-lactamase inhibitor, against metallo-beta-lactamase- producing Pseudomonas aeruginosa clinical isolates” (Antimicrob Agents Chemother, 2010) can be followed below.

Activity calls are given as the source filed them. The rule behind the calls is not given here.

Series [1] relates to C[C@@H](O)[C@H]1C(=O)N2C(C(=O)[O-])=C(SC3Cn4cnc[n+]4C3)[C@H](C)[C@H]12. Nature of the series: (§1) Ratio of Kcat to Km for Pseudomonas aeruginosa beta-lactamaseVIM-2 by UV spectrophotometric analysis.
For series [2], the system named is C[C@@H](O)[C@H]1C(=O)N2C(C(=O)O)=C(SCCNC=N)C[C@H]12. Described as §1.
Series [3] deals with C[C@@H](O)[C@H]1C(=O)N2C(C(=O)[O-])=C(SC3Cn4cnc[n+]4C3)[C@H](C)[C@H]12. Nature of the series: (§2) Activity of Pseudomonas aeruginosa beta-lactamase VIM-2 by UV spectrophotometric analysis.
The subject of series [4] is C[C@@H](O)[C@H]1C(=O)N2C(C(=O)O)=C(SCCNC=N)C[C@H]12. The series is described as §2.
Series [5] has as its system Pseudomonas aeruginosa. In words: Inhibition of Pseudomonas aeruginosa Metallo-beta-lactamase assessed as increase in biapenem susceptible rate at 32 ug/ml. More on the design: scale not given: the % may be the effect or the level left.
The subject of series [6] is Pseudomonas aeruginosa. Nature of the series: Inhibition of Pseudomonas aeruginosa Metallo-beta-lactamase assessed as decrease in biapenem resistance rate at 32 ug/ml.
Series [7] concerns Pseudomonas aeruginosa. In words: Inhibition of Pseudomonas aeruginosa Metallo-beta-lactamase assessed as potentiation of piperacillin antimicrobial activity.
The test system of series [8] is Pseudomonas aeruginosa. Nature of the series: Inhibition of Pseudomonas aeruginosa Metallo-beta-lactamase assessed as potentiation of aztreonam antimicrobial activity.

A word on the kcat/Km: it is the second-order rate constant that governs catalysis at low substrate concentration. The term Km denotes the substrate concentration at which the rate is half of its maximum. A word on the kcat: it is the maximal rate divided by the concentration of active sites. Consider “Beta-lactamase VIM-2 (Pseudomonas aeruginosa) (from UniProt Q9K2N0)”, for which the kcat/Km in series [1] was determined as 500000 M⁻¹ s⁻¹; in series [2] it was 1.2e+07 M⁻¹ s⁻¹. Also, the Km was 24.7 µM in series [3] and 8.5 µM in series [4]. The kcat in series [3] amounted to 12.4 s⁻¹; in series [4] it was 98.9 s⁻¹.

For orientation: inhibition means the share of the control response that was lost under treatment. With `CC/C(C(=O)O)=C(\CC)C(=O)O`, in the series on Pseudomonas aeruginosa [5], the Activity was 22%. Moreover, the inhibition in the series on Pseudomonas aeruginosa [6] was 40%. Further, the outcome in the series with Pseudomonas aeruginosa [7] and in the series with Pseudomonas aeruginosa [8] was inactive.
